Laboratory results taken from article PMC6342966.

Target: His6-Z_GFP 11 (GFP 11 genetically fused to the C-terminus of the IgG binding Z domain derived from protein A)
Test: split reporter (BiFC, NanoBiT); split-GFP fluorescence complementation in solution, 96-well plate, TNG buffer, 225 µM His6-Z_GFP 11 and 0.2 µM GFP 1–10 variant, 25 °C, excitation 488 nm, emission 535 nm, controls without His6-Z_GFP 11 subtracted

rate of increase of the fluorescent signal after adding His6-Z GFP 11 [a.u./second]	rate of increase of the fluorescent signal after adding His6-Z GFP 11, additional hour after the first two minutes [a.u./sec]	rate of increase of the fluorescent signal after adding His6-Z GFP 11, first two minutes [a.u./sec]	Substance
0.5			GFP 1–10 OPT (non-maturated) (domain or fragment)
	6	83	GFP 1–10^mat (GFP 1–10 with maturated chromophore) (domain or fragment)
